# Measured values taken from publication PMC10112228.
# Biological target: His-CcpA (nonphosphorylated) (Streptococcus pneumoniae D39) (UniProt A0A0H2ZQ65)
# Test: EMSA
sequence,measurement,value
CTTTCTGTGAACGTGATTTTTTAAAACGTCTACTCATGATTAACACCTATACATTGAACATCTTACGATTATATCACTTTTTTACGGTAATGTCTACACCTTTTTTCACTATCTGCATCTTTAAGTATCTTAGTAGACTTCCCGCGAACCAAAAATATAGTAAAATGAAATAAGAACATGACAAATTGATCAGGACAGTCAAATCGTTTTCTAACAATATTTTAGAAGCAGATGTGTACTATTCTAGTTTCAATATAATATAGTACACAATGTGGTATAATCTTTTT (double strand) [Pcps2A (-250/+35)],binding,binds
